Legend:
[1] = target: HLA-A*03:01; assay: IEDB peptide-MHC binding, purified MHC/competitive/radioactivity; ≥ and ≤ were set here for values at or beyond the usual limits of such assays; conditions: source organism: Homo sapiens
[2] = target: HLA-A*11:01; assay: as above; conditions: source organism: Homo sapiens
[3] = target: HLA-A*01:01; assay: as above; conditions: source organism: Homo sapiens
[4] = target: HLA-A*24:02; assay: as above; conditions: source organism: Homo sapiens
[5] = target: HLA-A*01:01; assay: IEDB peptide-MHC binding, purified MHC/competitive/radioactivity; filed as Kd, often an IC50 or EC50 that approximates it; ≥ and ≤ were set here for values at or beyond the usual limits of such assays

Sequence	IC50 [1]	IC50 [2]	IC50 [3]	also measured
AYVHMVTHF				IC50 [4]: 23 nM
DAKIRIFDL				Kd ([5]; source organism: Homo sapiens): ≥ 50000 nM
DSDGSFFLY			0.6 nM	
KVVNPLFEK	85 nM	8.1 nM		
KYPENFFLL				IC50 [4]: 4.8 nM
NRKLLDIA				Kd ([5]; source organism: Bos taurus): ≥ 50000 nM
RTQNVLGEK	155 nM	31 nM		
STDHIPILY			1.7 nM	
YLDDPDLKY			2.8 nM	
YYEEQHPEL				IC50 [4]: 100 nM

Continued, in another order:

IC50 [1]	IC50 [2]	IC50 [3]	Sequence	also measured
42 nM	15.1 nM		ASFDKAKLK	
		0.74 nM	ATDFKFAMY	
128 nM	6.94 nM		SVLNLVIVK	

— the Immune Epitope Database (IEDB)
